Measured values as given in article doi:10.1101/2023.10.19.563136.

Tests used:
[1] = molecular target: phosphorylated HemRFL (full-length HemR) (Leptospira biflexa); assay: SEC
[2] = molecular target: phosphorylated HemRREC (phospho-receiver domain of HemR) (Leptospira biflexa); assay: SEC

## phosphorylated HemRFL (full-length HemR) (natural protein)
[1]
  stoichiometry N: 2

## phosphorylated HemRREC (phospho-receiver domain of HemR) (domain or fragment)
[2]
  stoichiometry N: 2
